Experimental data from patent US20140286963A1.

Key:
[1] = molecular target: murine BACE1 ECD (amino acids 1-457) (murine) (UniProt P56818); assay: SPR (BIAcore-3000), IgG captured by anti-human Fc antibody, BACE1 ECD injected, 25 C, pH 7.0
[2] = molecular target: murine BACE1 ECD (amino acids 1-457) (murine) (UniProt P56818); assay: SPR (BIAcore-3000), second unlabelled row under Mouse, IgG captured by anti-human Fc antibody, pH 7.0

Sequence of murine BACE1 ECD (amino acids 1-457) (murine) (P56818 22-457 limits assumed, form in doubt): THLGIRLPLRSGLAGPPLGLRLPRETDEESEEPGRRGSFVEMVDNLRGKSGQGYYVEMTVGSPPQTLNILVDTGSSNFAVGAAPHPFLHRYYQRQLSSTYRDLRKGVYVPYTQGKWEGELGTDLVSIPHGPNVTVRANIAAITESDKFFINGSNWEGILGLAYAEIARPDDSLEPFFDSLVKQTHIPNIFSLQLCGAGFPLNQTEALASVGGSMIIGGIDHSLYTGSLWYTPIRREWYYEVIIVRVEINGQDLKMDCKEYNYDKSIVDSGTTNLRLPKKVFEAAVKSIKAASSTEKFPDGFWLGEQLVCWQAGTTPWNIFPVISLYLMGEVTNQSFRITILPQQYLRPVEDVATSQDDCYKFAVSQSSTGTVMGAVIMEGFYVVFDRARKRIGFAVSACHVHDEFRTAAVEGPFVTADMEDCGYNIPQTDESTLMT

Kd [1]: 2.1 nM | koff [1]: 0.00029 s⁻¹ | kon [1]: 140000 M⁻¹ s⁻¹ | Kd [2]: 1.4 nM | koff [2]: 0.000141 s⁻¹ | kon [2]: 101000 M⁻¹ s⁻¹
B1: YW412.8.31 anti-BACE1 human IgG (antibody, V domains shown)
VH: EVQLVESGGGLVQPGGSLRLSCAASGFTFLGYGIHWVRQAPGKGLEWVGWISPAGGSTDYADSVKGRFTISADTSKNTAYLQMNSLRAEDTAVYYCARGPFSPWVMDYWGQGTLVTVSS
VL: DIQMTQSPSSLSASVGDRVTITCRASQDVSTAVAWYQQKPGKAPKLLIYSASFLYSGVPSRFSGSGSGTDFTLTISSLQPEDFATYYCQQFPTYLPTFGQGTKVEIK
